{
  "source": "patent US20230382966A1",
  "about": "“NOVEL KLOTHO INTERACTION SITE IN THE C-TERMINUS OF FGF23” (INDIANA UNIVERSITY RESEARCH AND TECHNOLOGY CORPORATION, priority 2020, published 2023)",
  "molecules": {"B1": {"name": "FGF23 A^188: FGF23^25-240, A^188 (protein)", "chain": "YPNASPLLGSSWGGLIHLYTATARNSYHLQIHKNGHVDGAPHQTIYSALMIRSEDAGFVVITGVMSRRYLCMDFRGNIFGSHYFDPENCRFQHQTLENGYDVYHSPQYHFLVSLGRAKRAFLPGMNPPPYSQFLSRRNEIPLIHFNTPIPRRHTRSAEDDSERAPLNVLKPRARMTPAPASCSQELPSAEDNSPMASDPLGVVRGGRVNTHAGGTG"}, "B2": {"name": "FGF23 A^188,222: FGF23^25-240, A^188,222 (protein)", "chain": "B1 chain with D198A"}, "B3": {"name": "FGF23: FGF23^25-240, native protein (protein)", "chain": "B1 chain with A164D"}},
  "key": {"[1]": {"tested_on": "FGF21-signaling in 293/KLB cells", "assay": "Block of FGF21-signaling in 293/KLB cells", "assay_type": "cell-based", "settings": "Table 1, FGF21 associated antagonist", "excerpt": "The sequence homology in these endocrine FGF peptides (FGF23^180-205, FGF23^212-239, FGF19^191-216 and FGF21^185-209) is provided in FIG. 2."}, "[2]": {"tested_on": "FGFR/KL-downstream targets Cyp24a1, Cyp27b1 and Egr1", "assay": "Mouse kidney gene expression after FGF23 protein analogs (quantitative real time PCR)", "assay_type": "in vivo", "settings": "WT mice, 0.5 mg/kg, 3 hours", "method": "(§1) FIGS. 5A-5D provide data relating to the activities of FGF23-analogs containing one or two active KL-interaction sites by in vitro and in vivo methods. […] FIGS. 5B-5D are scatter plots presenting an in vivo assessment of FGF23-activity in mice. WT mice were treated with 0.5 mg/kg body weight with either FGF23, FGF23 A^188, FGF23 A^222, FGF23 A^188,222, or vehicle, n=5 or 10/group, and post 3-hours the gene expression changes were studied by quantitative real time PCR for target genes, FIG. 5B represents measurement of Cyp24a1, FIG. 5C represents measurement of Cyp27b1, and FIG. 5D represents measurement of Egr1. The data is presented as a scatter plot where each dot represents one animal, mean ±SEM. One-way ANOVA with Tukey's comparison was employed for statistical analyses where***P<0.001 vs. vehicle; #P<0.05, ##P<0.01, ###P<0.001 vs FGF23; and $$$P<0.001 vs FGF23 A^188,222 was calculated.\nTo test whether C28 as the second KL-interaction site can promote FGF23 in vivo activity, the single site FGF23-analogs were assessed for their ability to alter kidney gene expression in normal mice. Four proteins (FGF23, FGF23 A188, FGF23 A222 or FGF23 A188, 222 analogs) were each dosed to mice 0.5 mg/kg and 3 hours later quantitative real time PCR was employed to assess kidney mRNA expression of the FGFR/KL-downstream targets Cyp24a1, Cyp27b1 and early growth response protein 1 (Egr1). […] This is not surprising since the optimal treatment time for Egrl modulation is as early as 1 hour for FGF-signaling measurements. The magnitude in upregulation of gene expression for Cyp24a1 was the highest, with twenty-fold induction by native FGF23 treatment (FIG. 5B). […] Similarly, the Egrl induction is reduced for FGF23 A188 and FGF23 A222 analogs as compared to native FGF23 (P<0.05, FIG. 5D), but no difference is observed among the analogs and FGF23 for Cyp27b1 (FIG. 5C)."}, "FGFR/KL complex": {"tested_on": "FGFR/KL complex", "sequence (Q9UEF7 34-1012, one chain of several)": "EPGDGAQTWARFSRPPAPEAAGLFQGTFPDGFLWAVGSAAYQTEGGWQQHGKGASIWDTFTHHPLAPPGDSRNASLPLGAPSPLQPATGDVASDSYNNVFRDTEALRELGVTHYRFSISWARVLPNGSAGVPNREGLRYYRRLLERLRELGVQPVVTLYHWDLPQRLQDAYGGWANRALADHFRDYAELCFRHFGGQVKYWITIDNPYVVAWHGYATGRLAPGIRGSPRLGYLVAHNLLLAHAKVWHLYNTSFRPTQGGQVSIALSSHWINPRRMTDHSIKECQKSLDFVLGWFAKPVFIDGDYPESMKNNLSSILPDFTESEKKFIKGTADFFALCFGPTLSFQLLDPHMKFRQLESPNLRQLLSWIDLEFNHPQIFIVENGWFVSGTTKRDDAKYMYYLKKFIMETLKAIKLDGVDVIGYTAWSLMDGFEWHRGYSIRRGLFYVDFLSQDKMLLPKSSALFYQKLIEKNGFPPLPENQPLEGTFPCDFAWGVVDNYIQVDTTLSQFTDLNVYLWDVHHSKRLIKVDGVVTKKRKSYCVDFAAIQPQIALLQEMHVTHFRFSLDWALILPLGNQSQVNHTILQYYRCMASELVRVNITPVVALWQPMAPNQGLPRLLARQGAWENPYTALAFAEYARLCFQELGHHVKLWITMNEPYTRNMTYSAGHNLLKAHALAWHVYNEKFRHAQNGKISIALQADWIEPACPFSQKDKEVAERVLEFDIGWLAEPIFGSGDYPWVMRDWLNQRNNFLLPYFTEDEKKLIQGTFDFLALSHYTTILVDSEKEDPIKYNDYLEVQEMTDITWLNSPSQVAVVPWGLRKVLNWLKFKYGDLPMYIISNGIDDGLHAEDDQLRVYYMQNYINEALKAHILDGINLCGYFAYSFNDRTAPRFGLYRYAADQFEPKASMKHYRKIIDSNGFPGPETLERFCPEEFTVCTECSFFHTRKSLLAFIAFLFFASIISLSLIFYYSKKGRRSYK", "assay": "FGF23-signaling activity (stimulation of Erk-phosphorylation) in 293/KL cells", "assay_type": "cell-based, human", "settings": "for EC50: Table 3, p-Erk", "method": "as §1\nWhether FGF23-based agonism can employ each of the two KL-interaction sites as witnessed in the C72 peptide antagonist was studied. To do so, a selective mutation at position Asp188 or Asp222 was made in the native FGF23. […] This is consistent with prior reports where C-terminal sequence deletion after residue 205 position had no apparent effect on cellular signaling (FIG. 5A, Table 3). […] Asp188 residue is purported to be singularly essential for KL-binding and FGF23 activity, and its importance was substantiated by the lack of antagonism when the C26 peptide was similarly mutated from Asp to Ala (FIG. 4A). […] To confirm that these observations were not resulting from unexpected changes in higher order structure that was not apparent in biosynthesis, purification, or formulation of the mutant proteins their biophysical integrity were directly assessed by thermal denaturation.\nThe N-terminal domain of the endocrine FGFs primarily determines the FGFR-activation while the C-terminal sequence guides the co-receptor specificity with a Klotho co-receptor, KL or KLB. The receptor complex specificity among the endocrine FGF-proteins can be modulated by altering their C-terminal domains. Consequently, two FGF21-23 chimeric protein analogs were prepared containing the FGF21 N-terminal core with its C-terminal KLB-binding peptide replaced with an FGF23 C-terminal peptide sequence constituted by C72 (FGF21-23 C72) or C26 (FGF21-23 C26) (Table 3)."}},
  "note": "Residue numbers refer to the chain shown, from its start.",
  "data": [
    {"molecule": "21C25: FGF21 associated antagonist (FGF21^185-209, C25) (PPDVGSSDPLSMVGPSQGRSPSYAS)", "values": [
      {"measurement": "IC50", "setting": "[1]", "result": "75.2 ± 19", "unit": "nM"}
    ]},
    {"molecule": "B1", "values": [
      {"measurement": "kidney Cyp24a1 mRNA expression vs vehicle", "setting": "[2]", "result": "significant elevation"},
      {"measurement": "kidney Cyp27b1 mRNA expression vs vehicle", "setting": "[2]", "result": "coordinate suppression"},
      {"measurement": "Egr1 induction as compared to native FGF23", "setting": "[2]; kidney", "result": "reduced"},
      {"measurement": "magnitude of Cyp24a1 effect as compared to native FGF23", "setting": "[2]; kidney", "result": "fractionally reduced"},
      {"measurement": "FGF23-type agonism / FGFR/KL activation (in words)", "setting": "FGFR/KL complex", "result": "retained full potency"},
      {"measurement": "EC50", "setting": "FGFR/KL complex", "result": "0.28 ± 0.08", "unit": "nM"}
    ]},
    {"molecule": "B2", "values": [
      {"measurement": "kidney Cyp24a1 mRNA expression vs vehicle", "setting": "[2]", "result": "inactive"},
      {"measurement": "kidney Cyp27b1 mRNA expression vs vehicle", "setting": "[2]", "result": "inactive"},
      {"measurement": "Egr1 induction as compared to native FGF23", "setting": "[2]; kidney", "result": "statistically different"},
      {"measurement": "FGF23-type agonism / FGFR/KL activation (in words)", "setting": "FGFR/KL complex", "result": "bioactivity was abrogated"}
    ]},
    {"molecule": "B3", "values": [
      {"measurement": "kidney Cyp24a1 mRNA expression vs vehicle", "setting": "[2]", "result": "significant elevation"},
      {"measurement": "kidney Cyp27b1 mRNA expression vs vehicle", "setting": "[2]", "result": "coordinate suppression"},
      {"measurement": "magnitude of upregulation of Cyp24a1 gene expression (induction)", "setting": "[2]; kidney", "result": "twenty-fold"},
      {"measurement": "EC50", "setting": "FGFR/KL complex", "result": "0.16 ± 0.05", "unit": "nM"}
    ]}
  ]
}
